Results reported in publication PMC7188994.

Biological target: SspA C314S mutant from Vibrio cyclitrophicus FF75 (Vibrio cyclitrophicus FF75)
Assay: crystal structure; SspA C314S with cysteine substrate and PLP; hanging drop at 14°C, 1.8 M ammonium citrate pH 7.0; space group P6_(3)22, two molecules in each asymmetric unit; 1.80 Å

- stoichiometry N: 2
Substance: SspA C314S mutant from Vibrio cyclitrophicus FF75 (from UniProt A0AAN0N811 1-211) (enzyme)
